For ten variants, response results are on record in paper PMC11955279 (2025).

The chains are these.
B1: AtSEP3 (…3), wild type, in pGADT7 [Arabidopsis thaliana] / AtAP1 (APETALA1), in pGBKT7 [Arabidopsis thaliana] (parent complex)
chain 1: MGRGRVELKRIENKINRQVTFAKRRNGLLKKAYELSVLCDAEVALIIFSNRGKLYEFCSSSSMLRTLERYQKCNYGAPEPNVPSREALAVELSSQQEYLKLKERYDALQRTQRNLLGEDLGPLSTKELESLERQLDSSLKQIRALRTQFMLDQLNDLQSKERMLTETNKTLRLRLADGYQMPLQLNPNQEEVDHYGRHHHQQQQHSQAFFQPLECEPILQIGYQGQQDGMGAGPSVNNYMLGWLPYDTNSI
chain 2: not shown

Variants of B1 are the subject of one assay. The experiment in a line: yeast two-hybrid β-galactosidase activity assay; parent: 51; read off a plot.
With chain 1 L99A, chain 1 L101A, the response was ~24 β-galactosidase units.

For chain 1 L99A, the response was ~31 β-galactosidase units. On the same count and under the same terms, in the case of chain 1 L99A, chain 1 L101A, chain 1 L108A, chain 1 L115A it was ~25 β-galactosidase units; in that of chain 1 L99A, chain 1 L101A, chain 1 L108A, ~21 β-galactosidase units. Same read-out and setting: then chain 1 L99A, chain 1 L101A, chain 1 L108A, chain 1 L115A, chain 1 L116A, with ~15 β-galactosidase units.

In a further assay the parent is B1. The experiment in a line: yeast two-hybrid β-galactosidase activity assay; parent: 26; read off a plot.
chain 1 L116A: the response was ~11 β-galactosidase units.

With chain 1 L120A, the response is ~8.7 β-galactosidase units. On to chain 1 L99A, for which the response was ~16 β-galactosidase units. The same measure, in the same setting: then chain 1 L108A, with ~15 β-galactosidase units. On to chain 1 L115A, for which the response is ~13 β-galactosidase units. On the same count and under the same terms, then chain 1 L101A, with ~14 β-galactosidase units.
